Measurements taken from patent US20140255414A1 (PROBIODRUG, published 2014).
Square brackets hold non-standard residues; d marks the D form. pGlu = O=C1CC[C@@H](C(=O)O)N1; PEG = not defined here

What was measured:
Aβ(pE11-30) peptide = molecular target: T1, Aβ(pE11-30) peptide (N-terminal pyroglutamate (Aβ position 11)); experiment: direct ELISA: AβpE(11-30) coated at 0-500 ng/ml, 1 µg/ml biotinylated antibody pre-incubated with streptavidin-HRP, absorption 450/540 nm
T1 construct: Synthesized peptide; Amine-coupled to a CM5 chip for SPR, or adsorbed to the microplate for the direct ELISA
T1 peptide: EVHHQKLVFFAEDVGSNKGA
Experimental: AβpE(11-30) peptide with different concentrations was coated over night at 4° C. and then blocked with ELISA-Blocker (−T) 2 h at RT. Anti Aβ11(pE) antibody (clone 13) biotinylated was pre-incubated with streptavidin-HRP conjugate 10 min at RT and diluted in ELISA-Blocker (+T) were performed. Addition of 1 μg/ml antibody (clone 13). Wash cycles in-between incubations with 6×300 μl/well TBS-T buffer (except after peptide coating). TMB/H₂O₂ were added, incubated 30 min at RT (dark) and enzyme reaction was stopped with 1 M H₂SO₄. Absorption was measured at 450/540 nm at TECAN Sunrise.

Aβ(pE11-18)-PEG peptide = molecular target: T2, Aβ(pE11-18)-PEG peptide (reading uncertain); experiment: ITC at 20 °C, peptide titrated into biotinylated antibody
T2 construct: The PEG attachment is not described further
T2 peptide: [pGlu]VHHQKLV-{PEG}
Experimental: 1.3.4.1 Determination of Thermodynamic Parameters With ITC, the thermodynamic parameters of the binding of anti Aβ11(pE) antibody from clone 13 at antigen Aβ11(pE) was determined. For the ITC experiment, the peptide Aβ(pE11-18)-PEG was used because the hydrophilic PEG group imparts hydrophilic properties and so it was possible to dissolve the peptide directly in ITC buffer. Former experiments with Aβ(pE11-20) could only be performed with 1-2% DMSO, due to the strong hydrophobicity of the peptide it was necessary to dissolve it with DMSO which could have an effect on the ITC binding properties. At first the antibody was dialyzed against ITC buffer (150 mM NaCl, 25 mM Na₂HPO₄, 25 mM KH₂PO₄, 1 mM EDTA, pH=7.1) over night at 4° C. The lyophilised peptide, stored at −20° C., was dissolved in identical ITC buffer pH=7.1 which was used for antibody dialysis. Both antibody and antigen must be in identical solutions, otherwise large heats of dilution will mask the desired observation. Before the ITC experiment, the concentration of antibody was determined by UV/VIS spectroscopy (see section 1.3.1). At first the antibody with e.g. 5.13 μM (see Table 4) was added into the sample cell and the reference cell was filled with distilled water. Then the antigen was injected into the sample cell with e.g. 81.78 μM (see Table 4). The antigen should be generally in twofold excess to the antibody, bearing in mind that an antibody has two binding sites the antigen was in the cell at least in fourfold excess to the antibody. The 30 injections (1×2 μl and 29×10 μl) were made with a 4-min interval between subsequent injections. The measurement of heat of reaction was performed at 20° C. Furthermore the heat of reaction was determined which was only generated by dilution of the antigen through the titration into ITC buffer (pH=7.1). Therefore the antigen was injected into the sample cell filled with ITC buffer. The heat of reaction which was generated during the titration of the antigen to the antibody was corrected about this value. The analysis of raw data and the determination of the association constant (KA), reaction stoichiometry (n), binding enthalpy (ΔH) and entropy (ΔS) was performed with Origin Software of MicroCal.

B1: biotinylated monoclonal mouse anti Aβ11(pE) antibody (clone 13) (antibody, V domains shown)
VH: QVQLQQPGTELVKPGASVKLSCKASGFTFTSYWMHWVRQRPGQGLEWIGEINPSNGRTNYNEKFKSKATLTVDKSSSTAYMQLSSLTSEDSEVYYCARGDLAWDWSAYWGQGTLVTVSA
VL: DIVMSQSPSSLAVSAGEKVTMSCKSSQSLFYSRTRKNYLAWYQQKPGQSPKLLIYWASTRESGVPDRFTGSGSGTDFTLTISSVQAEDLAVYYCKQSYNLWSFGGGTKLEIKR
modifications: about 2 biotin molecules (NHS-PEO4-Biotin) coupled per antibody; sites not stated
notes: Mouse IgG; also called anti Aβ11(pE)-biotin antibody (clone 13); mAb mouse anti Aβ11(pE)-Biotin
binding result (Aβ(pE11-30) peptide): binds | -TΔS (Aβ(pE11-18)-PEG peptide): -0.98 kcal/mol | Ka (Aβ(pE11-18)-PEG peptide): 8e+06 M⁻¹ | Kd (Aβ(pE11-18)-PEG peptide): 125 nM | Stoichiometry (N) (Aβ(pE11-18)-PEG peptide): 1.66
